Experimental data taken from article PMC9352680, “A comprehensive thermodynamic model for RNA binding by the Saccharomyces cerevisiae Pumilio protein PUF4”.

T1: PUF4 RNA-binding domain (Saccharomyces cerevisiae, UniProt P25339 537-888)
T1 sequence: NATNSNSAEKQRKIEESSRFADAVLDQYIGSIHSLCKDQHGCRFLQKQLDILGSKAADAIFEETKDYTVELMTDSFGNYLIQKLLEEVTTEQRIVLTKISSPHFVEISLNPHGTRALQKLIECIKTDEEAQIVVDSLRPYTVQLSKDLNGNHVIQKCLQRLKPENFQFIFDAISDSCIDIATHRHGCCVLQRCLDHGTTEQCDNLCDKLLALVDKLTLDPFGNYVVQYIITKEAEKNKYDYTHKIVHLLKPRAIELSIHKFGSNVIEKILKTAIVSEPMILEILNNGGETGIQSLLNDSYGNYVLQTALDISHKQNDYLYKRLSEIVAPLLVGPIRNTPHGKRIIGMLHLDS


Molecular target: T1, PUF4 RNA-binding domain
Assay: Mg; RNA-MaP; 20 mM Na-HEPES pH 7.4, 30 mM KOAc, 0.75 mM MgCl2, 0.1% Tween-20, 5% glycerol, 0.1 mg/mL BSA, 2 mM DTT; 25 C; 0.0125-409.6 nM protein
Settings: tags: N-His6-TEV cleaved; C-SNAP kept, Cy3B-labelled; label: tethered on chip by stalled RNA polymerase

Binder | Kd
Ie_S2_P4E.1_K4.1_C4.1_H4.1_A4.1_F4.1_[+9C]_T4.1 (ssRNA) RNA: UUUGAUUAAUAUGAUAUCGUUCUUUCUUGUAUAUUACUUCUUUCUCGAUAUCAUAUUAAUCUUU | 1.33 nM
Ie_S2_P4E.1_K4.1_C4.1_H4.1_A4.1_F4.1_[+9T]_T4.1 (ssRNA) RNA: UUUGAUUAAUAUGAUAUCGUUCUUUCUUGUAUAUUAUUUCUUUCUCGAUAUCAUAUUAAUCUUU | 0.265 nM
Ie_S2_P4E.1_K4.1_C4.1_H4.1_A4.1_F4.1_[+9TCTC]_T4.1 (ssRNA) RNA: UUUGAUUAAUAUGAUAUCGUUCUUUCUUGUAUAUUAUCUCUUCUUUCUCGAUAUCAUAUUAAUCUUU | 0.324 nM
Ie_S2_P5E.1_K5.1_C5.1_H5.1_[+2TCC]_A5.1_F5.1_T5.1 (ssRNA) RNA: UUUGAUUAAUAUGAUAUCGUUCUUUCUUGUCCUAUUAUUAUUCUUUCUCGAUAUCAUAUUAAUCUUU | 22.2 nM
Ie_S2_P5E.1_K5.1_C5.1_H5.1_[+2CTT]_A5.1_F5.1_T5.1 (ssRNA) RNA: UUUGAUUAAUAUGAUAUCGUUCUUUCUUGCUUUAUUAUUAUUCUUUCUCGAUAUCAUAUUAAUCUUU | 368 nM
Ie_S2_P5E.1_K5.1_C5.1_H5.1_[+2TTC]_A5.1_F5.1_T5.1 (ssRNA) RNA: UUUGAUUAAUAUGAUAUCGUUCUUUCUUGUUCUAUUAUUAUUCUUUCUCGAUAUCAUAUUAAUCUUU | 6.91 nM
Ie_S2_P5E.1_K5.1_C5.1_H5.1_[+2TCT]_A5.1_F5.1_T5.1 (ssRNA) RNA: UUUGAUUAAUAUGAUAUCGUUCUUUCUUGUCUUAUUAUUAUUCUUUCUCGAUAUCAUAUUAAUCUUU | 11.1 nM
Ie_S2_P4E.1_K4.1_C4.1_H4.1_A4.1_F4.1_[+9CCC]_T4.1 (ssRNA) RNA: UUUGAUUAAUAUGAUAUCGUUCUUUCUUGUAUAUUACCCUUCUUUCUCGAUAUCAUAUUAAUCUUU | 0.512 nM
Ie_S2_P5E.1_K5.1_C5.1_H5.1_[+1CC]_A5.1_F5.1_T5.1 (ssRNA) RNA: UUUGAUUAAUAUGAUAUCGUUCUUUCUUCCGUAUUAUUAUUCUUUCUCGAUAUCAUAUUAAUCUUU | 565 nM
Ie_S2_P4E.1_K4.1_C4.1_H4.1_A4.1_F4.1_[+9TTT]_T4.1 (ssRNA) RNA: UUUGAUUAAUAUGAUAUCGUUCUUUCUUGUAUAUUAUUUUUCUUUCUCGAUAUCAUAUUAAUCUUU | 0.208 nM
Ie_S2_P5E.1_K5.1_C5.1_H5.1_[+2CC]_A5.1_F5.1_T5.1 (ssRNA) RNA: UUUGAUUAAUAUGAUAUCGUUCUUUCUUGCCUAUUAUUAUUCUUUCUCGAUAUCAUAUUAAUCUUU | 679 nM
Ie_S2_P5E.1_K5.1_C5.1_H5.1_[+2CT]_A5.1_F5.1_T5.1 (ssRNA) RNA: UUUGAUUAAUAUGAUAUCGUUCUUUCUUGCUUAUUAUUAUUCUUUCUCGAUAUCAUAUUAAUCUUU | 725 nM
Ie_S2_P5E.1_K5.1_C5.1_H5.1_[+2TT]_A5.1_F5.1_T5.1 (ssRNA) RNA: UUUGAUUAAUAUGAUAUCGUUCUUUCUUGUUUAUUAUUAUUCUUUCUCGAUAUCAUAUUAAUCUUU | 6.21 nM
Ie_S2_P4E.1_K4.1_C4.1_H4.1_A4.1_F4.1_[+9TTC]_T4.1 (ssRNA) RNA: UUUGAUUAAUAUGAUAUCGUUCUUUCUUGUAUAUUAUUCUUCUUUCUCGAUAUCAUAUUAAUCUUU | 0.446 nM
Ie_S2_P4E.1_K4.1_C4.1_H4.1_A4.1_F4.1_[+9CC]_T4.1 (ssRNA) RNA: UUUGAUUAAUAUGAUAUCGUUCUUUCUUGUAUAUUACCUUCUUUCUCGAUAUCAUAUUAAUCUUU | 0.543 nM
Ie_S2_P4E.1_K4.1_C4.1_H4.1_A4.1_F4.1_[+9TC]_T4.1 (ssRNA) RNA: UUUGAUUAAUAUGAUAUCGUUCUUUCUUGUAUAUUAUCUUCUUUCUCGAUAUCAUAUUAAUCUUU | 0.411 nM
Ie_S2_P5E.1_K5.1_C5.1_H5.1_[+2T]_A5.1_F5.1_T5.1 (ssRNA) RNA: UUUGAUUAAUAUGAUAUCGUUCUUUCUUGUUAUUAUUAUUCUUUCUCGAUAUCAUAUUAAUCUUU | 26 nM
Ie_S2_P5E.1_K5.1_C5.1_H5.1_[+1TCTC]_A5.1_F5.1_T5.1 (ssRNA) RNA: UUUGAUUAAUAUGAUAUCGUUCUUUCUUUCUCGUAUUAUUAUUCUUUCUCGAUAUCAUAUUAAUCUUU | 245 nM
Ie_S2_P5E.1_K5.1_C5.1_H5.1_[+1CCC]_A5.1_F5.1_T5.1 (ssRNA) RNA: UUUGAUUAAUAUGAUAUCGUUCUUUCUUCCCGUAUUAUUAUUCUUUCUCGAUAUCAUAUUAAUCUUU | 178 nM
Ie_S2_P5E.1_K5.1_C5.1_H5.1_[+1TTT]_A5.1_F5.1_T5.1 (ssRNA) RNA: UUUGAUUAAUAUGAUAUCGUUCUUUCUUUUUGUAUUAUUAUUCUUUCUCGAUAUCAUAUUAAUCUUU | 1.6 nM
Ie_S2_P5E.1_K5.1_C5.1_H5.1_[+1TCT]_A5.1_F5.1_T5.1 (ssRNA) RNA: UUUGAUUAAUAUGAUAUCGUUCUUUCUUUCUGUAUUAUUAUUCUUUCUCGAUAUCAUAUUAAUCUUU | 1.14 nM
Ie_S2_P5E.1_K5.1_C5.1_H5.1_[+2CTC]_A5.1_F5.1_T5.1 (ssRNA) RNA: UUUGAUUAAUAUGAUAUCGUUCUUUCUUGCUCUAUUAUUAUUCUUUCUCGAUAUCAUAUUAAUCUUU | 499 nM

Binder | Kd
Ie_S2_P5E.1_K5.1_C5.1_H5.1_[+1TTC]_A5.1_F5.1_T5.1 (ssRNA) RNA: UUUGAUUAAUAUGAUAUCGUUCUUUCUUUUCGUAUUAUUAUUCUUUCUCGAUAUCAUAUUAAUCUUU | 374 nM
Ie_S2_P5E.1_K5.1_C5.1_H5.1_[+1CTT]_A5.1_F5.1_T5.1 (ssRNA) RNA: UUUGAUUAAUAUGAUAUCGUUCUUUCUUCUUGUAUUAUUAUUCUUUCUCGAUAUCAUAUUAAUCUUU | 1.16 nM
Ie_S2_P5E.1_K5.1_C5.1_H5.1_[+1CTC]_A5.1_F5.1_T5.1 (ssRNA) RNA: UUUGAUUAAUAUGAUAUCGUUCUUUCUUCUCGUAUUAUUAUUCUUUCUCGAUAUCAUAUUAAUCUUU | 355 nM
Ie_S2_P5E.1_K5.1_C5.1_H5.1_[+1TCC]_A5.1_F5.1_T5.1 (ssRNA) RNA: UUUGAUUAAUAUGAUAUCGUUCUUUCUUUCCGUAUUAUUAUUCUUUCUCGAUAUCAUAUUAAUCUUU | 198 nM
Ie_S2_P5E.1_K5.1_C5.1_H5.1_[+1CTCTC]_A5.1_F5.1_T5.1 (ssRNA) RNA: UUUGAUUAAUAUGAUAUCGUUCUUUCUUCUCUCGUAUUAUUAUUCUUUCUCGAUAUCAUAUUAAUCUUU | 204 nM
Ie_S2_P5E.1_K5.1_C5.1_H5.1_[+1CCCTT]_A5.1_F5.1_T5.1 (ssRNA) RNA: UUUGAUUAAUAUGAUAUCGUUCUUUCUUCCCUUGUAUUAUUAUUCUUUCUCGAUAUCAUAUUAAUCUUU | 1.2 nM
Ie_S2_P5E.1_K5.1_C5.1_H5.1_[+1CCTCT]_A5.1_F5.1_T5.1 (ssRNA) RNA: UUUGAUUAAUAUGAUAUCGUUCUUUCUUCCUCUGUAUUAUUAUUCUUUCUCGAUAUCAUAUUAAUCUUU | 1.23 nM
Ia_S2_P3E.1_K3.1_C3.1_H3.1_[A4C]_A3.1_F3.1_T3.1 (ssRNA) RNA: UUUGAUUAAUAUGAUAUCGUUCUUUCUUGUCUAUAUUCUUUCUCGAUAUCAUAUUAAUCUUU | 184 nM
Ib_S2_P3E.1_K3.1_C3.1_H3.1_[T1A]_[G2A]_A3.1_F3.1_T3.1 (ssRNA) RNA: UUUGAUUAAUAUGAUAUCGUUCUUUCUAAUAUAUAUUCUUUCUCGAUAUCAUAUUAAUCUUU | 889 nM
Ib_S2_P3E.1_K3.1_C3.1_H3.1_[T1G]_[G2T]_A3.1_F3.1_T3.1 (ssRNA) RNA: UUUGAUUAAUAUGAUAUCGUUCUUUCUGUUAUAUAUUCUUUCUCGAUAUCAUAUUAAUCUUU | 15.6 nM
Ib_S2_P3E.1_K3.1_C3.1_H3.1_[T1C]_[G2C]_A3.1_F3.1_T3.1 (ssRNA) RNA: UUUGAUUAAUAUGAUAUCGUUCUUUCUCCUAUAUAUUCUUUCUCGAUAUCAUAUUAAUCUUU | 495 nM
Ib_S2_P3E.1_K3.1_C3.1_H3.1_[T1G]_[G2C]_A3.1_F3.1_T3.1 (ssRNA) RNA: UUUGAUUAAUAUGAUAUCGUUCUUUCUGCUAUAUAUUCUUUCUCGAUAUCAUAUUAAUCUUU | 798 nM
Ie_S2_P4E.1_K4.1_C4.1_H4.1_A4.1_F4.1_[+8TCTCT]_T4.1 (ssRNA) RNA: UUUGAUUAAUAUGAUAUCGUUCUUUCUUGUAUAUUUCUCUAUUCUUUCUCGAUAUCAUAUUAAUCUUU | 3.78 nM
Ie_S2_P4E.1_K4.1_C4.1_H4.1_A4.1_F4.1_[+9CCCTT]_T4.1 (ssRNA) RNA: UUUGAUUAAUAUGAUAUCGUUCUUUCUUGUAUAUUACCCUUUUCUUUCUCGAUAUCAUAUUAAUCUUU | 0.523 nM
Ie_S2_P4E.1_K4.1_C4.1_H4.1_A4.1_F4.1_[+8TTCCT]_T4.1 (ssRNA) RNA: UUUGAUUAAUAUGAUAUCGUUCUUUCUUGUAUAUUUUCCUAUUCUUUCUCGAUAUCAUAUUAAUCUUU | 3.81 nM
Ie_S2_P5E.1_K5.1_C5.1_H5.1_[+1CTCT]_A5.1_F5.1_T5.1 (ssRNA) RNA: UUUGAUUAAUAUGAUAUCGUUCUUUCUUCUCUGUAUUAUUAUUCUUUCUCGAUAUCAUAUUAAUCUUU | 1.25 nM
Ie_S2_P4E.1_K4.1_C4.1_H4.1_A4.1_F4.1_[+8CCTCT]_T4.1 (ssRNA) RNA: UUUGAUUAAUAUGAUAUCGUUCUUUCUUGUAUAUUCCUCUAUUCUUUCUCGAUAUCAUAUUAAUCUUU | 4.43 nM
Ie_S2_P4E.1_K4.1_C4.1_H4.1_A4.1_F4.1_[+9TCTCT]_T4.1 (ssRNA) RNA: UUUGAUUAAUAUGAUAUCGUUCUUUCUUGUAUAUUAUCUCUUUCUUUCUCGAUAUCAUAUUAAUCUUU | 0.382 nM
Ie_S2_P5E.1_K5.1_C5.1_H5.1_[+1CCCT]_A5.1_F5.1_T5.1 (ssRNA) RNA: UUUGAUUAAUAUGAUAUCGUUCUUUCUUCCCUGUAUUAUUAUUCUUUCUCGAUAUCAUAUUAAUCUUU | 1.15 nM
Ie_S2_P4E.1_K4.1_C4.1_H4.1_A4.1_F4.1_[+9TTCCT]_T4.1 (ssRNA) RNA: UUUGAUUAAUAUGAUAUCGUUCUUUCUUGUAUAUUAUUCCUUUCUUUCUCGAUAUCAUAUUAAUCUUU | 0.282 nM
Ie_S2_P4E.1_K4.1_C4.1_H4.1_A4.1_F4.1_[+9CCTCT]_T4.1 (ssRNA) RNA: UUUGAUUAAUAUGAUAUCGUUCUUUCUUGUAUAUUACCUCUUUCUUUCUCGAUAUCAUAUUAAUCUUU | 0.733 nM
Ie_S2_P4E.1_K4.1_C4.1_H4.1_A4.1_F4.1_[+9CTCTC]_T4.1 (ssRNA) RNA: UUUGAUUAAUAUGAUAUCGUUCUUUCUUGUAUAUUACUCUCUUCUUUCUCGAUAUCAUAUUAAUCUUU | 0.532 nM
